Data as given in patent publication US7029857B1, “Processes for obtaining compounds employing SNORF72 receptors” (H. Lundbeck A/S, priority 1999, dated 2006).
Read-outs that look alike come from different tables or passages of the source. No end group written: not given here.

T1: SNORF62 (Homo sapiens, UniProt Q9HB89)
T1 sequence (Q9HB89 1-426): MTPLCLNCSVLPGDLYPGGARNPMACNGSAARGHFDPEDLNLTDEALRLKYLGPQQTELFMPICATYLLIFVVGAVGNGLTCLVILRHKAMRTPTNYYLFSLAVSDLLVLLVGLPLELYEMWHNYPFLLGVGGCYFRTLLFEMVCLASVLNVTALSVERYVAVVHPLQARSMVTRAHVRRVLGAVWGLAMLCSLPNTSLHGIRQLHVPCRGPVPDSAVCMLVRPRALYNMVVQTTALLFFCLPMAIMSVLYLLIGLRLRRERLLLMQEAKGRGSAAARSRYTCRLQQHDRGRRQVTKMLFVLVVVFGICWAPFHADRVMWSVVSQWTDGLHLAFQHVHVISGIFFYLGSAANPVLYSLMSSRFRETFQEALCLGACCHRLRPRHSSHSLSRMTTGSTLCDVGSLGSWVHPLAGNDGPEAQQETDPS

T2: human SNORF62 receptor (human, UniProt Q9HB89 1-426)
T2 sequence: T1 sequence (Q9HB89 1-426)


How the values were obtained:
[1] = target: T3, SNORF72 (Homo sapiens, UniProt Q9GZQ4, A395T); test: Intracellular Ca2+ release (FLIPR) in SNORF72-transfected COS-7 cells; format: cell-based; settings: SNORF72, data not shown
T3 construct: expressed in transfected cells; host or cells: COS-7 (transient, DEAE-dextran)
T3 sequence (Q9GZQ4 whole entry A395T): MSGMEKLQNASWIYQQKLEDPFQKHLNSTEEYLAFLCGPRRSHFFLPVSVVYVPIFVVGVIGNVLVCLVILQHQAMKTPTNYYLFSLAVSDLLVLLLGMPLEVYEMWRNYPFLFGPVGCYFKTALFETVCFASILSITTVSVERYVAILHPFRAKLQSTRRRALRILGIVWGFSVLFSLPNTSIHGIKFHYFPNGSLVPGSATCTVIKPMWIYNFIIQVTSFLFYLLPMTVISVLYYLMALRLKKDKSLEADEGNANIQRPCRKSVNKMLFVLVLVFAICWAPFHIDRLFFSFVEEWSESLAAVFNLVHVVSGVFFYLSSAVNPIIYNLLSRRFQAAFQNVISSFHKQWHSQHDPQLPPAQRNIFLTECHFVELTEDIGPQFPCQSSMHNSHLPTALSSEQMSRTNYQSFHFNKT
Description: (§1) A typical protocol for the DEAE-dextran method as applied to COS-7 and HEK293 cells is described as follows. Cells to be used for transfection are split 24 hours prior to the transfection to provide flasks which are 70–80% confluent at the time of transfection. Briefly, 8 μg of receptor DNA plus 8 μg of any additional DNA needed (e.g. Gα protein expression vector, reporter construct, antibiotic resistance marker, mock vector, etc.) are added to 9 ml of complete DMEM plus DEAE-dextran mixture (10 mg/ml in PBS). Cells plated into a T225 flask (sub-confluent) are washed once with PBS and the DNA mixture is added to each flask. The cells are allowed to incubate for 30 minutes at 37° C., 5% CO2. Following the incubation, 36 ml of complete DMEM with 80 μM chloroquine is added to each flask and allowed to incubate an additional 3 hours. The medium is then aspirated and 24 ml of complete medium containing 10% DMSO for exactly 2 minutes and then aspirated. The cells are then washed 2 times with PBS and 30 ml of complete DMEM added to each flask. The cells are then allowed to incubate over night. The next day the cells are harvested by trypsinization and reseeded into 96 well plates.
(§2) Cells expressing the receptor of interest are plated into clear, flat-bottom, black-walled 96-well plates (Costar) at a density of 80,000–150,000 cells per well and allowed to incubate for 48 hr at 5% CO2, 37° C. The growth medium is aspirated and 100 μL of loading medium containing Fluo-3 dye is added to each well. The loading medium contains: 20 mM HEPES (Sigma), 0.1% BSA (Sigma), dye/pluronic acid mixture (e.g. 1 mM Fluo-3/AM (Molecular Probes) and 10% pluronic acid (Molecular Probes) mixed immediately before use), and 2.5 mM probenecid (Sigma)(prepared fresh). The cells are allowed to incubate for about 1 hour at 5% CO2, 37° C.
(§3) The compounds of interest are diluted in wash buffer (Hank's BSS (without phenol red), 20 mM HEPES, 2.5 mM probenecid) to a 4× final concentration and aliquoted into a clear v-bottom plate (Nunc). Following the dye incubation, the cells are washed 4 times to remove excess dye using a Denley plate washer. 100 μL final volume of wash buffer is then added to each cell well. Compounds are added to the cell plates and responses are measured using the FLIPR™ instrument. The data are then collected and analyzed using the FLIPR™ software and Graphpad Prism.
(§4) COS-7 cells were transiently transfected with SNORF62, SNORF72 or vector DNA (mock) as described in Materials and Methods.

[2] = target: T1, SNORF62; test: Intracellular Ca2+ release (FLIPR) in SNORF62-transfected COS-7 cells; format: cell-based; design: The SNORF62 cDNA codes for a protein of 426 amino acids; expressed in transfected cells; host or cells: COS-7 (transient, DEAE-dextran); settings: SNORF62, data not shown
Description: as §1, §2, §3, §4

[3] = target: T3, SNORF72; test: Displacement of [125I]rat NMU-23 binding in SNORF72-transfected COS-7 membranes; settings: for displacement of [125I]rat NMU-23 binding: SNORF72 membranes
Description: (§5) The specifics of preparing such cell membranes may in some cases be determined by the nature of the ensuing assay but typically involve harvesting whole cells and disrupting the cell pellet by sonication in ice cold buffer (e.g. 20 mM Tris HCl, mM EDTA, pH 7.4 at 4° C.). The resulting crude cell lysate is cleared of cell debris by low speed centrifugation at 200×g for 5 min at 4° C. The cleared supernatant is then centrifuged at 40,000×g for 20 min at 4° C., and the resulting membrane pellet is washed by suspending in ice cold buffer and repeating the high speed centrifugation step. The final washed membrane pellet is resuspended in assay buffer. Protein concentrations are determined by the method of Bradford (1976) using bovine serum albumin as a standard. The membranes may be used immediately or frozen for later use.
(§6) Radioligand binding assays were performed by diluting membranes prepared from cells expressing the receptor in 50 mM Tris buffer (pH=7.4 at 0° C.) containing 0.1% bovine serum albumin (Sigma), aprotinin (0.005 mg/ml, Boehringer Mannheim) and bestatin (0.1 mM, Sigma) as protease inhibitors. The final protein concentration in the assay was 12–40 μg/ml. […] The bound ligand was separated from free by filtration through GF/B filters presoaked in 0.5% polyethyleneimine (PEI), using a Tomtec (Wallac) vacuum filtration device. After addition of Ready Safe (Beckman) scintillation fluid, bound radioactivity was quantitated using a Trilux (Wallac) scintillation counter (approximately 40% counting efficiency of bound counts). Data was fit to non-linear curves using GraphPad Prism.
(§7) In this manner, agonist or antagonist compounds that bind to the receptor may be identified as they inhibit the binding of the labeled ligand to the membrane protein of cells expressing the said receptor. Non-specific binding was defined as the amount of radioactivity remaining after incubation of membrane protein in the presence of 100 nM of the unlabeled peptide corresponding to the radioligand used. In equilibrium saturation binding assays membrane preparations or intact cells transfected with the receptor are incubated in the presence of increasing concentrations of the labeled compound to determine the binding affinity of the labeled ligand.

[4] = target: T1, SNORF62; test: Displacement of [125I]rat NMU-23 binding in SNORF62-transfected COS-7 membranes; design: The SNORF62 cDNA codes for a protein of 426 amino acids; expressed in transfected cells; host or cells: COS-7 (transient, DEAE-dextran); settings: for displacement of [125I]rat NMU-23 binding: SNORF62 membranes
Description: as §5, §6, §7

[5] = target: T4, human SNORF72 receptor (human, UniProt Q9GZQ4 1-415); test: displacement of [125I]rat NMU-23, membranes of SNORF72-transfected COS-7 cells
T4 sequence (Q9GZQ4 other isoform, or with tags, fused parts or gaps): as the sequence (Q9GZQ4 whole entry A395T) above
Description: as §6, with “µg/ml.” for “μg/ml.”

[6] = target: T4, human SNORF72 receptor; test: displacement of [125I]rat NMU-23 (0.05-0.1 nM), membranes of SNORF72-transfected COS-7 cells, n=2
Description: as §6, with “µg/ml.” for “μg/ml.”

[7] = target: T2, human SNORF62 receptor; test: displacement of [125I]rat NMU-23, membranes of SNORF62-transfected COS-7 cells
Description: as §6, with “µg/ml.” for “μg/ml.”

[8] = target: T2, human SNORF62 receptor; test: displacement of [125I]rat NMU-23 (0.05-0.1 nM), membranes of SNORF62-transfected COS-7 cells, n=2
Description: as §6, with “µg/ml.” for “μg/ml.”

[9] = target: T4, human SNORF72 receptor; test: cell-based or functional assay
[10] = target: T2, human SNORF62 receptor; test: cell-based or functional assay
[11] = target: T2, human SNORF62 receptor; test: cell-based or functional assay; remark: listed apart in the source

Row | Molecule | activate the receptors in transfected COS-7 cells [1] | activate the receptors in transfected COS-7 cells [2] | displacement of [125I]rat NMU-23 binding [3] | displacement of [125I]rat NMU-23 binding [4] | Ki [5] | pKi [6] | Ki [7] | pKi [8] | other results
1 | CC[C@H](C)[C@H](NC(=O)[C@H](CO)NC(=O)[C@H](CC(N)=O)NC(=O)[C@H](CC(C)C)NC(=O)[C@H](Cc1ccc(O)cc1)NC(=O)[C@H](CCCCN)NC(=O)[C@H](CCCCN)NC(=O)[C@@H](NC(=O)[C@H](C)NC(=O)[C@H](CCSC)NC(=O)[C@H](CCC(N)=O)NC(=O)[C@H](CCCCN)NC(=O)[C@H](CCCNC(=N)N)NC(=O)[C@H](CC(C)C)NC(=O)[C@H](CCCNC(=N)N)NC(=O)[C@@H](NC(=O)[C@H](Cc1ccc(O)cc1)NC(=O)[C@H](CC(N)=O)NC(=O)[C@H](CC(=O)O)NC(=O)[C@@H](NC(=O)[C@H](Cc1ccccc1)NC(=O)[C@@H](NC(=O)[C@H](C)NC(=O)[C@H](CC(=O)O)NC(=O)[C@H](CO)NC(=O)[C@@H](N)Cc1c[nH]cn1)C(C)C)[C@@H](C)O)[C@@H](C)O)C(C)C)C(=O)N[C@@H](CC(C)C)C(=O)N[C@@H](CC(N)=O)C(N)=O [VIP] | did not | did not | did not displace binding | did not displace binding | – | – | – | – | –
2 | APSEPHHPGDQATQDQLAQYYSDLYQYITFVTRPRF-NH2 (C-terminus assumed) [frog PP] | did not | did not | did not displace binding | did not displace binding | – | – | – | – | –
3 | frog PP (peptide) | – | – | – | – | > 10 µM | < 5 | > 10 µM | < 5 | –

Continued, in another order:

Row | activate the receptors in transfected COS-7 cells [1] | activate the receptors in transfected COS-7 cells [2] | displacement of [125I]rat NMU-23 binding [3] | displacement of [125I]rat NMU-23 binding [4] | Ki [5] | pKi [6] | Ki [7] | pKi [8] | Molecule | other results
4 | did not | did not | did not displace binding | did not displace binding | – | – | – | – | CC[C@H](C)[C@H](NC(=O)[C@H](Cc1ccc(O)cc1)NC(=O)[C@H](CCCNC(=N)N)NC(=O)[C@H](CCCNC(=N)N)NC(=O)[C@H](CC(C)C)NC(=O)[C@H](CCC(N)=O)NC(=O)[C@@H](NC(=O)[C@H](CCC(=O)O)NC(=O)[C@H](Cc1ccc(O)cc1)NC(=O)[C@H](CCC(N)=O)NC(=O)[C@H](C)NC(=O)[C@H](CCCNC(=N)N)NC(=O)[C@H](CCC(N)=O)NC(=O)[C@H](CCC(=O)O)NC(=O)[C@H](Cc1c[nH]cn1)NC(=O)[C@@H](NC(=O)[C@H](C)NC(=O)[C@H](Cc1ccc(O)cc1)NC(=O)[C@H](CC(=O)O)NC(=O)CNC(=O)[C@@H]1CCCN1C(=O)[C@H](Cc1ccc(O)cc1)NC(=O)[C@H](CCSC)NC(=O)[C@@H]1CCCN1C(=O)[C@H](CCC(=O)O)NC(=O)[C@H](CC(C)C)NC(=O)[C@@H]1CCCN1C(=O)[C@H](C)N)[C@@H](C)O)[C@@H](C)O)C(=O)N[C@@H](CC(N)=O)C(=O)N[C@H](C(=O)N[C@@H](CC(C)C)C(=O)N[C@H](C(=O)N[C@@H](CCCNC(=N)N)C(=O)N1CCC[C@H]1C(=O)N[C@@H](CCCNC(=N)N)C(=O)N[C@@H](Cc1ccc(O)cc1)C(N)=O)[C@@H](C)O)[C@@H](C)O [rat PP] | Ki ([3]; binding affinity, SNORF72-transfected COS-7 cells, unit printed in cell (Table 1A), read-out: SNORF72 Avg Ki): > 10 µM; Ki ([3]; displacement of [125I]rat NMU-23 (0.05-0.1 nM), n = 2 (Table 2), read-out: SNORF72 Avg pKi (converted)): > 10 µM; Ki ([4]; binding affinity, SNORF62-transfected COS-7 cells, unit printed in cell (Table 1A), read-out: SNORF62 Avg Ki): > 10 µM; Ki ([4]; displacement of [125I]rat NMU-23 (0.05-0.1 nM), n = 2 (Table 2), read-out: SNORF62 Avg pKi (converted)): > 10 µM
5 | – | – | – | – | > 10 µM | < 5 | > 10 µM | < 5 | HSDAVFTDNYTRLRKQMAVKKYLNSILN-NH2 (peptide, UniProt P01282 125-152, looked up, species assumed, ends and bridges not checked) [vasoactive intestinal peptide] | –
6 | – | – | – | – | 0.0018 µM | 8.7 | – | 9 | FKVDEEFQGPIVSQNRRYFLFRPRN-NH2 (also called porcine neuromedin U-25) [porcine NMU-25] | Avg EC50 (nM), stimulation of Ca2+ release in SNORF72-transfected COS-7 cells [9]: 3 nM; Avg EC50 (nM), stimulation of Ca2+ release in SNORF62-transfected COS-7 cells [10]: 5.2 nM; AVG EC50 (nM), stimulation of Ca++ release in SNORF62-transfected COS-7 cells (FLIPR) [11]: 5.2 nM
7 | – | – | – | – | > 10 µM | < 5 | > 10 µM | < 5 | APLEPMYPGDYATHEQRAQYETQLRRYINTLTRPRY (peptide, UniProt P06303 30-65, looked up, also called rat pancreatic polypeptide) [rat PP] | –
